This is an account of results in publication PMC7815493 (Redox Biology, 2021).

Data set [1] deals with the molecule itself. Nature of the data set: non-reducing SDS-PAGE and immunoblot.
Data set [2] addresses T1, HMGB1:LK:CFP, P09429.
T1 chain: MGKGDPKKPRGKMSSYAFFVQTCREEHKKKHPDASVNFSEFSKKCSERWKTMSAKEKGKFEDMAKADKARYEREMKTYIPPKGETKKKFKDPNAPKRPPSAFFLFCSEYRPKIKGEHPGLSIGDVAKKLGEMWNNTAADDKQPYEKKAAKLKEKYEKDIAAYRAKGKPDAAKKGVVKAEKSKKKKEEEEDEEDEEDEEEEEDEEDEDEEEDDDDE
Kind of data set: FRET or BRET. As to conditions: remark: other sources report otherwise. For orientation: BRET reads energy transfer from a luciferase to a nearby fluorophore.

In data set [3] the target is T2, Six His-tagged HMGB1 recombinant protein, P09429.
T2 chain: T1 chain
Nature of the data set: MALDI-TOF MS. As to conditions: remark: other sources report otherwise.

Data set [4] addresses T2, Six His-tagged HMGB1 recombinant …. As to conditions: remark: other sources report otherwise.

B1: HMGB1 box B (aa 88-162) (domain or fragment, UniProt P09429 88-162, looked up)
chain: KFKDPNAPKRPPSAFFLFCSEYRPKIKGEHPGLSIGDVAKKLGEMWNNTAADDKQPYEKKAAKLKEKYEKDIAAY
As for B1, in data set [1], the binding result is on record as “binds”.

B2: YFP:LK:HMGB1, P09429 1-215 (natural protein)
chain: T1 chain
With B2, in data set [2], the FRET efficiency amounted to 17.1%.

B3: Six His-tagged HMGB1 recombinant protein, P09429 1-215 (natural protein)
chain: T1 chain
As usually defined, the stoichiometry N is the number of molecules, sites or subunits per partner or assembly. Take B3: in data set [3], the stoichiometry N is 2. The percent of molecules that are dimers in data set [4] stood at 70%.
